In one assay the target is T1, BMP4 (Homo sapiens, UniProt P12644).
T1 sequence (P12644 293-408): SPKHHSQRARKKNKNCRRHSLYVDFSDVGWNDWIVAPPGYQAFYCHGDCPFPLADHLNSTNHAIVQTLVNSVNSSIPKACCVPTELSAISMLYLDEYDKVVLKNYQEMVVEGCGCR
The assay is described as follows: BMP4 signal transduction inhibitory activity: SMAD1 phosphorylation by BMP4 stimulus, AlphaLISA SureFire, A549 cells. Type of assay: cell-based. Particulars: for aLISA BMP4: A549 cells. (In general: Alpha assays give light when donor and acceptor beads are brought close together.)

For another assay, the target named is T2, BMP7 (Homo sapiens, UniProt P18075).
T2 sequence (P18075 293-431): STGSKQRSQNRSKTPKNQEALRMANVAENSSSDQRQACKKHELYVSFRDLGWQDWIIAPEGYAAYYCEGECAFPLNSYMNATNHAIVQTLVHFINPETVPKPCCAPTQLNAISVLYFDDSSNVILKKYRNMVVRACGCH
Description: BMP7 signal transduction inhibitory activity: SMAD1 phosphorylation by BMP7 stimulus, A549 cells. Particulars: for aLISA BMP7: A549 cells. The assay is classed as cell-based. The gist of the method:
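Inhibition was measured as loss of BMP7-induced SMAD1 phosphorylation, using 10 nM BMP7 on A549 cells. Most peptides were given as three-concentration sets, such as 1/10/100, 10/100/1,000, 100/300/1,000 or 10/30/90 nM. Others were given as eight 1/3-ratio dilutions from 100 or 1,000 nM, alongside Noggin as control.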

Setting [1] is: inhibition of SMAD1 phosphorylation by BMP4 stimulus, AlphaLISA, class by peptide concentration zone.
Where [2] appears, read: inhibition of SMAD1 phosphorylation by BMP7 stimulus, AlphaLISA, class by peptide concentration zone.
Where [3] appears, read: SMAD1 phosphorylation, BMP4 0.2 nM, peptide conc. in assay 0.2, 2, 20 nM.
Where [4] appears, read: SMAD1 phosphorylation, BMP7 10 nM, peptide conc. in assay 1, 10, 100 nM.
[5] abbreviates: inhibition of SMAD1 phosphorylation by BMP4 stimulus, peptides of Synthesis 1, classes D-F, ND.
Where [6] appears, read: inhibition of SMAD1 phosphorylation by BMP7 stimulus, peptides of Synthesis 1, classes E, F, ND.
The mark [7] stands for this setting: SMAD1 phosphorylation, peptides of Synthesis 2, peptide 0.02, 0.2, 2 nM.
The mark [8] stands for this setting: 10 nM BMP7, peptides of Synthesis 2, peptide 1, 10, 100 nM.
Setting [9] is: BMP4 0.2 nM stimulus, peptide conc. in assay 0.2, 2, 20 nM.
[10] abbreviates: BMP7 10 nM stimulus, peptide conc. in assay 1, 10, 100 nM.

The values below come from patent US20250361274A1, “PEPTIDE AND PEPTIDE-CONTAINING AGENT” (PEPTIDREAM INC., priority 2022, published 2025).

Numbered stars: 1 amine (or outer) side, 2 acyl side, 3 side chain; on linkers, the order of the positions; unused ones are H or OH. Bridge positions count the residues as written; N and C are the ends. Square brackets hold non-standard residues; d marks the D form. Ends that are not written are not given here. KCOpipzaa = N6-(4-(carboxymethyl)piperazine-1-carbonyl)-L-lysine, O=C(NCCCC[C@H](N[*:1])C(=O)[*:2])N1CCN(CC(=O)[*:3])CC1; 3Pal(6-Ph) = N[C@@H](Cc1ccc(-c2ccccc2)nc1)C(=O)O; Phe(4-COOH) = N[C@@H](Cc1ccc(C(=O)O)cc1)C(=O)O; NMePhe(4-Cl) = CN[C@@H](Cc1ccc(Cl)cc1)C(=O)O; NMePhe(4-Me) = CN[C@@H](Cc1ccc(C)cc1)C(=O)O; Bip = N[C@@H](Cc1ccc(-c2ccccc2)cc1)C(=O)O; Phe(4-F) = N[C@@H](Cc1ccc(F)cc1)C(=O)O; NMeF = CN[C@@H](Cc1ccccc1)C(=O)O; 4Pal = N[C@@H](Cc1ccncc1)C(=O)O; Aad = N[C@@H](CCCC(=O)O)C(=O)O; Cha = N[C@@H](CC1CCCCC1)C(=O)O; Gly(cPr) = N[C@H](C(=O)O)C1CC1; Abu = CC[C@H](N)C(=O)O; βAla = NCCC(=O)O

In the case of “64 (Ac-E[KCOpipzaa]VYVD[KCOpipzaa][Bip]PYP[Bip]Y[Phe(4-COOH)][Phe(4-COOH)]SCG-NH2; thioether (positions not given here); not fully specified (bridges)) [compound 64]”, the “aLISA BMP4” value with BMP4 (setting [1]) is “C (showed an inhibitory activity of less than 50% in 0.2 nM-addition zone and showed an inhibitory activity of 50% or more in 2 nM-addition zone were defined as B or C)”. Further, the “aLISA BMP7” value in the assay with BMP7 (setting [2]) is listed as “D (showed less than 50% of inhibitory activity in 100 nM-addition zone)”.

As to “244 (ARVYVDR[3Pal(6-Ph)]SYV[Bip]Y[Phe(4-COOH)][Phe(4-COOH)]SCG-NH2; not fully specified) [compound 244]”, the “aLIZA BMP4 (0.2 nM) % Inh” value in the assay with BMP4 (SMAD1 phosphorylation by BMP4 stimulus, peptide conc. in assay 0.02, 0.2, 2 nM, class symbols) was “C (showed less than 30% of inhibitory activity in 0.2 nM-addition zone and showed 30% or more of inhibitory activity in 2 nM-addition zone)”. For the same substance, the “aLIZA BMP7 (10 nM) % Inh” value in the assay with BMP7 (SMAD1 phosphorylation by BMP7 stimulus, peptide conc. in assay 10, 100, 1000 nM, class symbols) is “ND (the inhibitory activity was less than 30% at the maximum concentration evaluated)”.

“385 (FG[NMePhe(4-Cl)]G[Bip]GDD[Cha]A[NMeF]LHCG-NH2; not fully specified) [compound 385]”: the “aLISA BMP4 (0.2 nM) % inh” value in the assay with BMP4 (BMP4 0.2 nM stimulus, peptide conc. in assay 2, 20, 200 nM) was “B (showed less than 30% of inhibitory activity in 20 nM-addition zone and showed 30% or more of inhibitory activity in 200 nM-addition zone)”. The “aLISA BMP7 (10 nM) % inh” value in the assay with BMP7 (BMP7 10 nM stimulus, peptide conc. in assay 10, 30, 90 nM) was “F (showed less than 30% of inhibitory activity in 10 nM-addition zone and showed 30% or more of inhibitory activity in 30 nM-addition zone)”.

Regarding “272 (ERV[Phe(4-COOH)][Gly(cPr)]DR[3Pal(6-Ph)]SYV[Bip][4Pal][Phe(4-COOH)][Phe(4-COOH)]SCG-NH2; not fully specified (N-terminus, bridges)) [compound 272]”, in the assay with BMP4 (BMP4 0.2 nM stimulus, peptide conc. in assay 0.02, 0.2, 2 nM, class symbols), the “aLIZA BMP4 (0.2 nM) % inh” value was “C (showed less than 30% of inhibitory activity in 0.2 nM-addition zone and showed 30% or more of inhibitory activity in 2 nM-addition zone)”. Further, the “aLIZA BMP7 (10 nM) % inh” value with BMP7 (BMP7 10 nM stimulus, peptide conc. in assay 10, 100, 1000 nM, class symbols) is “ND (the inhibitory activity was less than 30% at the maximum concentration evaluated)”.

Consider “346 (FG[NMeF]G[Bip]GDD[Cha]A[NMeF]IHCG-NH2; not fully specified (N-terminus, bridges)) [compound 346]”, for which the “aLISA BMP4 (0.2 nM) % inh” value with BMP4 (setting [3]) is reported as “ND (the inhibitory activity was less than 30% at the maximum concentration evaluated)”. For the same substance, the “aLISA BMP7 (10 nM) % inh” value with BMP7 (setting [4]) was “D (showed less than 30% of inhibitory activity in 10 nM-addition zone and showed 30% or more of inhibitory activity in 100 nM-addition zone)”.

For the substance “125 ({CH2CO}-E[Aad]VYVDR[Bip]PYV[Bip]Y[Phe(4-COOH)][Phe(4-COOH)]SCG-NH2; thioether N-17; not fully specified) [compound 125]”, in the assay with BMP4 (setting [5]), the “aLISA BMP4” value is “E (showed less than 50% of inhibitory activity in 0.2 nM-addition zone and showed 50% or more of inhibitory activity in 2 nM-addition zone)”. Moreover, the “aLISA BMP7” value with BMP7 (setting [6]) is “E (showed 50% or more of inhibitory activity in a zone to which the peptide was added in an amount of 10 nM)”.

Consider “70 ({CH2CO}-ARVYVDK[Bip]PYP[Bip]Y[Phe(4-COOH)][Phe(4-COOH)]SCG-NH2; thioether N-17; not fully specified) [compound 70]”, for which the “aLISA BMP4” value with BMP4 (setting [1]) is listed as “A (showed an inhibitory activity of 50% or more in a zone to which the peptide was added to in an amount of 0.2 nM)”. Moreover, the “aLISA BMP7” value in the assay with BMP7 (setting [2]) is “C (showed less than 50% of inhibitory activity in 10 nM-addition zone and showed 50% or more of inhibitory activity in 100 nM-addition zone)”.

With “35 ({CH2CO}-AKVYVDK[Bip]PYP[Bip]Y[Phe(4-COOH)][Phe(4-COOH)]SCG-NH2; thioether N-17; not fully specified) [compound 35]”, the “aLISA BMP4” value in the assay with BMP4 (setting [7]) is reported as “A (showed an inhibitory activity of 50% or more in a zone to which the peptide was added to in an amount of 0.2 nM)”. The “aLISA BMP7” value with BMP7 (setting [8]) is recorded as “ND (the inhibitory activity was less than 30% at the maximum concentration evaluated)”.

Turning to “420 ([Phe(4-F)]G[NMeF]G[3Pal(6-Ph)]GDE[Cha][Aad][NMePhe(4-Me)]L[Abu]C-NH2; also: cyclic peptide, ring closure not given here) [compound 420]”, the “aLISA BMP4 (0.2 nM) % inh” value in the assay with BMP4 (setting [9]) is given as “ND (the inhibitory activity was less than 30% at the maximum concentration evaluated)”. Also, the “aLISA BMP7 (10 nM) % inh” value with BMP7 (setting [10]) was “D (showed less than 30% of inhibitory activity in 10 nM-addition zone and showed 30% or more of inhibitory activity in 100 nM-addition zone)”.

Regarding “330 (FG[NMeF][dA][Bip]GDD[Cha]A[NMeF]LHCG-NH2; not fully specified (N-terminus, bridges)) [compound 330]”, the “aLISA BMP4 (0.2 nM) % inh” value with BMP4 (setting [3]) is “ND (the inhibitory activity was less than 30% at the maximum concentration evaluated)”. In the assay with BMP7 (setting [4]), the “aLISA BMP7 (10 nM) % inh” value is “D (showed less than 30% of inhibitory activity in 10 nM-addition zone and showed 30% or more of inhibitory activity in 100 nM-addition zone)”.

On to “114 (EKVYVKRFPYPFYFFSCG; not fully specified; MOD_RES 2 K represents N6-(4-(Carboxymethyl) piperazine-1-carbonyl)-L-lysine(KCOpipzaa); MOD_RES 6 K represents N6-(4-(Carboxymethyl) piperazine-1-carbonyl)-L-lysine(KCOpipzaa); MOD_RES 8 F represents (S)-3-(1,1'-Biphenyl-4-yl)-2-aminopropanoic acid(Bph); MOD_RES 12 F represents (S)-3-(1,1'-Biphenyl-4-yl)-2-aminopropanoic acid(Bph); MOD_RES 14 F represents (S)-4-(2-amino-2-carboxyethyl)benzoic aci) [compound 114]”, for which, in the assay with BMP4 (inhibition of SMAD1 phosphorylation by BMP4 stimulus, peptides of Synthesis 2, classes A-C, ND), the “aLISA BMP4” value is recorded as “A (showed an inhibitory activity of 50% or more in a zone to which the peptide was added to in an amount of 0.2 nM)”. Also, the “aLISA BMP7” value in the assay with BMP7 (inhibition of SMAD1 phosphorylation by BMP7 stimulus, peptides of Synthesis 2, classes A-D, ND) was “C (showed less than 50% of inhibitory activity in 10 nM-addition zone and showed 50% or more of inhibitory activity in 100 nM-addition zone)”.

In the case of “411 (FG[NMeF]G[3Pal(6-Ph)]GDE[Cha][Aad][NMeF]L[Phe(4-COOH)]C[βAla][dE]) [compound 411]”, the “aLISA BMP4 (0.2 nM) % inh” value with BMP4 (setting [9]) is listed as “ND (the inhibitory activity was less than 30% at the maximum concentration evaluated)”. Besides, in the assay with BMP7 (setting [10]), the “aLISA BMP7 (10 nM) % inh” value was “D (showed less than 30% of inhibitory activity in 10 nM-addition zone and showed 30% or more of inhibitory activity in 100 nM-addition zone)”.

With “11 (ARVYVDRFKYPFYFFSCG; not fully specified; MOD_RES 8 F represents (S)-3-(1,1'-Biphenyl-4-yl)-2-aminopropanoic acid(Bph); MOD_RES 12 F represents (S)-3-(1,1'-Biphenyl-4-yl)-2-aminopropanoic acid(Bph); MOD_RES 14 F represents (S)-4-(2-amino-2-carboxyethyl)benzoic acid(F4COO); MOD_RES 15 F represents (S)-4-(2-amino-2-carboxyethyl)benzoic acid(F4COO)) [compound 11]”, the “aLISA BMP4” value in the assay with BMP4 (setting [7]) is recorded as “A (showed an inhibitory activity of 50% or more in a zone to which the peptide was added to in an amount of 0.2 nM)”. In addition, the “aLISA BMP7” value with BMP7 (setting [8]) is “C (showed less than 50% of inhibitory activity in 10 nM-addition zone and showed 50% or more of inhibitory activity in 100 nM-addition zone)”.

Turning to “143 ({CH2CO}-ERVYVDR[Bip]PYY[Bip]Y[Phe(4-COOH)][Phe(4-COOH)]SCG-NH2; thioether N-17; not fully specified) [compound 143]”, in the assay with BMP4 (setting [5]), the “aLISA BMP4” value was “D (showed 50% or more of inhibitory activity in 0.2 nM-addition zone)”. Further, in the assay with BMP7 (setting [6]), the “aLISA BMP7” value is reported as “E (showed 50% or more of inhibitory activity in a zone to which the peptide was added in an amount of 10 nM)”.
